Where no end group is shown, it is not given here. [ ]: non-standard residue; d: D form. Aib = CC(C)(N)C(=O)O
B1: [Aib2,Gly16,Glu21,Lys29,Aib30,Leu31,Glu32,Phe33,Leu34,Glu35,Leu36,Leu37]-Exendin-4-(1-37)-peptide amide (peptide)
peptide: H[Aib]EGTFTSDLSKQMEGEAVREFIEWLKNK[Aib]LEFLELL-NH2
modifications: N-terminus assumed
SMILES: CC[C@H](C)[C@H](NC(=O)[C@H](Cc1ccccc1)NC(=O)[C@H](CCC(=O)O)NC(=O)[C@H](CCCNC(=N)N)NC(=O)[C@@H](NC(=O)[C@H](C)NC(=O)[C@H](CCC(=O)O)NC(=O)CNC(=O)[C@H](CCC(=O)O)NC(=O)[C@H](CCSC)NC(=O)[C@H](CCC(N)=O)NC(=O)[C@H](CCCCN)NC(=O)[C@H](CO)NC(=O)[C@H](CC(C)C)NC(=O)[C@H](CC(=O)O)NC(=O)[C@H](CO)NC(=O)[C@@H](NC(=O)[C@H](Cc1ccccc1)NC(=O)[C@@H](NC(=O)CNC(=O)[C@H](CCC(=O)O)NC(=O)C(C)(C)NC(=O)[C@@H](N)Cc1c[nH]cn1)[C@@H](C)O)[C@@H](C)O)C(C)C)C(=O)N[C@@H](CCC(=O)O)C(=O)N[C@@H](Cc1c[nH]c2ccccc12)C(=O)N[C@@H](CC(C)C)C(=O)N[C@@H](CCCCN)C(=O)N[C@@H](CC(N)=O)C(=O)N[C@@H](CCCCN)C(=O)NC(C)(C)C(=O)N[C@@H](CC(C)C)C(=O)N[C@@H](CCC(=O)O)C(=O)N[C@@H](Cc1ccccc1)C(=O)N[C@@H](CC(C)C)C(=O)N[C@@H](CCC(=O)O)C(=O)N[C@@H](CC(C)C)C(=O)N[C@@H](CC(C)C)C(N)=O
B2: [Aib8,Glu23,Val25,Lys27,Glu34,Lys35,Aib36,Lys37]-GLP-1-(7-37)-peptidyl-Glu-Phe-Leu amide (peptide)
peptide: H[Aib]EGTFTSDVSSYLEGEAVKKFIAWLVEK[Aib]KEFL-NH2
modifications: N-terminus assumed
SMILES: CC[C@H](C)[C@H](NC(=O)[C@H](Cc1ccccc1)NC(=O)[C@H](CCCCN)NC(=O)[C@H](CCCCN)NC(=O)[C@@H](NC(=O)[C@H](C)NC(=O)[C@H](CCC(=O)O)NC(=O)CNC(=O)[C@H](CCC(=O)O)NC(=O)[C@H](CC(C)C)NC(=O)[C@H](Cc1ccc(O)cc1)NC(=O)[C@H](CO)NC(=O)[C@H](CO)NC(=O)[C@@H](NC(=O)[C@H](CC(=O)O)NC(=O)[C@H](CO)NC(=O)[C@@H](NC(=O)[C@H](Cc1ccccc1)NC(=O)[C@@H](NC(=O)CNC(=O)[C@H](CCC(=O)O)NC(=O)C(C)(C)NC(=O)[C@@H](N)Cc1c[nH]cn1)[C@@H](C)O)[C@@H](C)O)C(C)C)C(C)C)C(=O)N[C@@H](C)C(=O)N[C@@H](Cc1c[nH]c2ccccc12)C(=O)N[C@@H](CC(C)C)C(=O)N[C@H](C(=O)N[C@@H](CCC(=O)O)C(=O)N[C@@H](CCCCN)C(=O)NC(C)(C)C(=O)N[C@@H](CCCCN)C(=O)N[C@@H](CCC(=O)O)C(=O)N[C@@H](Cc1ccccc1)C(=O)N[C@@H](CC(C)C)C(N)=O)C(C)C
B3: [Aib8,Glu23,Lys24,Val25,Glu30,Glu34,Lys35,Aib36,Lys37]-GLP-1-(7-37)-peptidyl-Glu-Phe-Leu amide (peptide)
peptide: H[Aib]EGTFTSDVSSYLEGEKVKEFIEWLVEK[Aib]KEFL-NH2
modifications: N-terminus assumed
SMILES: CC[C@H](C)[C@H](NC(=O)[C@H](Cc1ccccc1)NC(=O)[C@H](CCC(=O)O)NC(=O)[C@H](CCCCN)NC(=O)[C@@H](NC(=O)[C@H](CCCCN)NC(=O)[C@H](CCC(=O)O)NC(=O)CNC(=O)[C@H](CCC(=O)O)NC(=O)[C@H](CC(C)C)NC(=O)[C@H](Cc1ccc(O)cc1)NC(=O)[C@H](CO)NC(=O)[C@H](CO)NC(=O)[C@@H](NC(=O)[C@H](CC(=O)O)NC(=O)[C@H](CO)NC(=O)[C@@H](NC(=O)[C@H](Cc1ccccc1)NC(=O)[C@@H](NC(=O)CNC(=O)[C@H](CCC(=O)O)NC(=O)C(C)(C)NC(=O)[C@@H](N)Cc1c[nH]cn1)[C@@H](C)O)[C@@H](C)O)C(C)C)C(C)C)C(=O)N[C@@H](CCC(=O)O)C(=O)N[C@@H](Cc1c[nH]c2ccccc12)C(=O)N[C@@H](CC(C)C)C(=O)N[C@H](C(=O)N[C@@H](CCC(=O)O)C(=O)N[C@@H](CCCCN)C(=O)NC(C)(C)C(=O)N[C@@H](CCCCN)C(=O)N[C@@H](CCC(=O)O)C(=O)N[C@@H](Cc1ccccc1)C(=O)N[C@@H](CC(C)C)C(N)=O)C(C)C
B4: [Aib8,Glu23,Aib24,Val25,Aib30,Glu34,Lys35,Aib36,Lys37]-GLP-1-(7-37)-peptidyl-Glu-Phe-Leu amide (peptide)
peptide: H[Aib]EGTFTSDVSSYLEGE[Aib]VKEFI[Aib]WLVEK[Aib]KEFL-NH2
modifications: N-terminus assumed
SMILES: CC[C@H](C)[C@H](NC(=O)[C@H](Cc1ccccc1)NC(=O)[C@H](CCC(=O)O)NC(=O)[C@H](CCCCN)NC(=O)[C@@H](NC(=O)C(C)(C)NC(=O)[C@H](CCC(=O)O)NC(=O)CNC(=O)[C@H](CCC(=O)O)NC(=O)[C@H](CC(C)C)NC(=O)[C@H](Cc1ccc(O)cc1)NC(=O)[C@H](CO)NC(=O)[C@H](CO)NC(=O)[C@@H](NC(=O)[C@H](CC(=O)O)NC(=O)[C@H](CO)NC(=O)[C@@H](NC(=O)[C@H](Cc1ccccc1)NC(=O)[C@@H](NC(=O)CNC(=O)[C@H](CCC(=O)O)NC(=O)C(C)(C)NC(=O)[C@@H](N)Cc1c[nH]cn1)[C@@H](C)O)[C@@H](C)O)C(C)C)C(C)C)C(=O)NC(C)(C)C(=O)N[C@@H](Cc1c[nH]c2ccccc12)C(=O)N[C@@H](CC(C)C)C(=O)N[C@H](C(=O)N[C@@H](CCC(=O)O)C(=O)N[C@@H](CCCCN)C(=O)NC(C)(C)C(=O)N[C@@H](CCCCN)C(=O)N[C@@H](CCC(=O)O)C(=O)N[C@@H](Cc1ccccc1)C(=O)N[C@@H](CC(C)C)C(N)=O)C(C)C
B5: [Aib8,Lys23,Arg24,Arg26,Glu34,Lys35,Aib36,Lys37]-GLP-1-(7-37)-peptidyl-Glu-Phe-Leu amide (peptide)
peptide: H[Aib]EGTFTSDVSSYLEGKRAREFIAWLVEK[Aib]KEFL-NH2
modifications: N-terminus assumed
SMILES: CC[C@H](C)[C@H](NC(=O)[C@H](Cc1ccccc1)NC(=O)[C@H](CCC(=O)O)NC(=O)[C@H](CCCNC(=N)N)NC(=O)[C@H](C)NC(=O)[C@H](CCCNC(=N)N)NC(=O)[C@H](CCCCN)NC(=O)CNC(=O)[C@H](CCC(=O)O)NC(=O)[C@H](CC(C)C)NC(=O)[C@H](Cc1ccc(O)cc1)NC(=O)[C@H](CO)NC(=O)[C@H](CO)NC(=O)[C@@H](NC(=O)[C@H](CC(=O)O)NC(=O)[C@H](CO)NC(=O)[C@@H](NC(=O)[C@H](Cc1ccccc1)NC(=O)[C@@H](NC(=O)CNC(=O)[C@H](CCC(=O)O)NC(=O)C(C)(C)NC(=O)[C@@H](N)Cc1c[nH]cn1)[C@@H](C)O)[C@@H](C)O)C(C)C)C(=O)N[C@@H](C)C(=O)N[C@@H](Cc1c[nH]c2ccccc12)C(=O)N[C@@H](CC(C)C)C(=O)N[C@H](C(=O)N[C@@H](CCC(=O)O)C(=O)N[C@@H](CCCCN)C(=O)NC(C)(C)C(=O)N[C@@H](CCCCN)C(=O)N[C@@H](CCC(=O)O)C(=O)N[C@@H](Cc1ccccc1)C(=O)N[C@@H](CC(C)C)C(N)=O)C(C)C
B6: [Aib8,Glu23,Arg24,Val25,Glu34,Lys35,Aib36,Lys37]-GLP-1-(7-37)-peptidyl-Glu-Phe-Leu amide (peptide)
peptide: H[Aib]EGTFTSDVSSYLEGERVKEFIAWLVEK[Aib]KEFL-NH2
modifications: N-terminus assumed
SMILES: CC[C@H](C)[C@H](NC(=O)[C@H](Cc1ccccc1)NC(=O)[C@H](CCC(=O)O)NC(=O)[C@H](CCCCN)NC(=O)[C@@H](NC(=O)[C@H](CCCNC(=N)N)NC(=O)[C@H](CCC(=O)O)NC(=O)CNC(=O)[C@H](CCC(=O)O)NC(=O)[C@H](CC(C)C)NC(=O)[C@H](Cc1ccc(O)cc1)NC(=O)[C@H](CO)NC(=O)[C@H](CO)NC(=O)[C@@H](NC(=O)[C@H](CC(=O)O)NC(=O)[C@H](CO)NC(=O)[C@@H](NC(=O)[C@H](Cc1ccccc1)NC(=O)[C@@H](NC(=O)CNC(=O)[C@H](CCC(=O)O)NC(=O)C(C)(C)NC(=O)[C@@H](N)Cc1c[nH]cn1)[C@@H](C)O)[C@@H](C)O)C(C)C)C(C)C)C(=O)N[C@@H](C)C(=O)N[C@@H](Cc1c[nH]c2ccccc12)C(=O)N[C@@H](CC(C)C)C(=O)N[C@H](C(=O)N[C@@H](CCC(=O)O)C(=O)N[C@@H](CCCCN)C(=O)NC(C)(C)C(=O)N[C@@H](CCCCN)C(=O)N[C@@H](CCC(=O)O)C(=O)N[C@@H](Cc1ccccc1)C(=O)N[C@@H](CC(C)C)C(N)=O)C(C)C
B7: [Aib8,Glu23,Val25,Trp30,Glu34,Lys35,Aib36,Lys37]-GLP-1-(7-37)-peptidyl-Glu-Phe-Leu amide (peptide)
peptide: H[Aib]EGTFTSDVSSYLEGEAVKEFIWWLVEK[Aib]KEFL-NH2
modifications: N-terminus assumed
SMILES: CC[C@H](C)[C@H](NC(=O)[C@H](Cc1ccccc1)NC(=O)[C@H](CCC(=O)O)NC(=O)[C@H](CCCCN)NC(=O)[C@@H](NC(=O)[C@H](C)NC(=O)[C@H](CCC(=O)O)NC(=O)CNC(=O)[C@H](CCC(=O)O)NC(=O)[C@H](CC(C)C)NC(=O)[C@H](Cc1ccc(O)cc1)NC(=O)[C@H](CO)NC(=O)[C@H](CO)NC(=O)[C@@H](NC(=O)[C@H](CC(=O)O)NC(=O)[C@H](CO)NC(=O)[C@@H](NC(=O)[C@H](Cc1ccccc1)NC(=O)[C@@H](NC(=O)CNC(=O)[C@H](CCC(=O)O)NC(=O)C(C)(C)NC(=O)[C@@H](N)Cc1c[nH]cn1)[C@@H](C)O)[C@@H](C)O)C(C)C)C(C)C)C(=O)N[C@@H](Cc1c[nH]c2ccccc12)C(=O)N[C@@H](Cc1c[nH]c2ccccc12)C(=O)N[C@@H](CC(C)C)C(=O)N[C@H](C(=O)N[C@@H](CCC(=O)O)C(=O)N[C@@H](CCCCN)C(=O)NC(C)(C)C(=O)N[C@@H](CCCCN)C(=O)N[C@@H](CCC(=O)O)C(=O)N[C@@H](Cc1ccccc1)C(=O)N[C@@H](CC(C)C)C(N)=O)C(C)C

biological target: human GLP-1 receptor (human, UniProt P43220); test: cell-based or functional assay

Question: Which “CRE luciferase EC50, 0% HSA” value does the source give for B1 here?
Answer: 506 pM

Question: What about the “CRE luciferase EC50, 1% HSA” value of the same binder?
Answer: 260 pM

Question: Which results are given for B2?
Answer: CRE luciferase EC50, 0% HSA: 325 pM; CRE luciferase EC50, 1% HSA: 97 pM

Question: How did the “CRE luciferase EC50, 0% HSA” value turn out when B3 was run?
Answer: 716 pM

Question: What about the “CRE luciferase EC50, 1% HSA” value of the same binder?
Answer: 164 pM

Question: With B4 as the binder, how does the “CRE luciferase EC50, 0% HSA” value read?
Answer: 396 pM

Question: What about the “CRE luciferase EC50, 1% HSA” value of the same binder?
Answer: 193 pM

Question: What does the source list for B5?
Answer: CRE luciferase EC50, 0% HSA: 383 pM; CRE luciferase EC50, 1% HSA: 138 pM

Question: What does the source list for HXEGTFTSDVSSYLEGQAAKEFIAWLVKKXKEFL (Aib at 8, 36; C-terminal amide) [[Aib8,Lys35,Aib36,Lys37]-GLP-1-(7-37)-peptidyl-Glu-Phe-Leu amide]?
Answer: CRE luciferase EC50, 0% HSA: 256 pM; CRE luciferase EC50, 1% HSA: 84 pM

Question: Which “CRE luciferase EC50, 0% HSA” value does the source give for HXEGTFTSDVSSYLEGQAAKEFIAWLVKKXGEFL (Aib at 8, 36; C-terminal amide) [[Aib8,Lys35,Aib36]-GLP-1-(7-37)-peptidyl-Glu-Phe-Leu amide] here?
Answer: 45 pM

Question: And the “CRE luciferase EC50, 1% HSA” value?
Answer: 15 pM

Question: For B6, which “CRE luciferase EC50, 0% HSA” value is on record?
Answer: 1080 pM

Question: And the “CRE luciferase EC50, 1% HSA” value?
Answer: 273 pM

Question: Which “CRE luciferase EC50, 0% HSA” value does the source give for B7 here?
Answer: 157 pM

Question: What about the “CRE luciferase EC50, 1% HSA” value of the same binder?
Answer: 54 pM

— patent US20150344540A1, “NOVEL GLP-1 RECEPTOR AGONISTS WITH CHOLESTEROL EFFLUX ACTIVITY” (NOVO NORDISK A/S, priority 2012, published 2015)
